Assay results as given in patent US12698507B2, “Methods and compositions for conferring and/or enhancing herbicide tolerance using protoporphyrinogen IX oxidase of various cyanobacteria or variant thereof” (FarmHannong Co., Ltd., priority 2019, dated 2026).

Each molecule was assayed on PPO-deficient BT3 E. coli (ΔPPO) (assay: PPO-inhibiting herbicide tolerance test of PPO variants in E. coli (growth on herbicide-containing LB agar)). Settings: CyPPO19 variants in BT3 (ΔPPO) E. coli; LB agar with 0 to 2,000 μM herbicide, 37° C., dark, 16-20 hours.
Format: cell-based
In short: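 Tolerance was scored against wild-type enzyme: '−' for equal growth, one '+' per 10-fold gain, up to '+++++'. ΔPPO BT3 cells carrying variant plasmids, spotted as a 10-fold dilution series from OD600=0.5, grew 16-20 h at 37° C. in the dark on ampicillin LB agar containing 0 to 2,000 μM herbicide.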

Row | Molecule | tolerance level relative to wild type, Carfentrazone | tolerance level relative to wild type, Flumioxazin | tolerance level relative to wild type, Fomesafen | tolerance level relative to wild type, Oxyfluorfen | tolerance level relative to wild type, Saflufenacil | tolerance level relative to wild type, Sulfentrazone | tolerance level relative to wild type, Tiafenacil
1 | CyPPO19 I408W + F360I: variant of CyPPO19 PPO protein (SEQ ID NO: 1) (protein, Synthetic_PPO of Thermosynechococcus elongatus PKUAC-SCTE542 (comprising GenBank No. CP032152.1)) MSEVDVAIVGGGLSGLSLAWRLQQSAPQYSVVLLEASDRLGGNITTQTAEGFVWELGPNSFAPTPALLQLIAEVGLQSELIRGDRHLPRYIYWRGQLYPLQPTRPLALATSNLLSPWGKVRAALGALGFVPPYLGSGDESVNSFFRRHLGQEVAERLVAPFVSGVYAGDPQQLSAAAAFRRIAQLEKLGGGLIAGALHLRRQQAPKPKPPTSVQMRPGELGSFKEGLAALPRAIAQQLKAPIHLQTPVQEITPDPKGGYLLRSGEQTWRARSVVLATPAYQTAELVAPFQPAIARVLATIPYPTVACVVLAYPAGLGRSVRPGFGVLIPRSQGIRTLGTIWSSCLFPQRTPAGWQVFTSIIGGATDPDLASLSEEAIVQQVQQDLNRLLDLPAAKARLLGMKVWRRAWPQYMVGYPEQWQQVTHALSQTPGLFLCSNYAEGVALGDRVEHGNRTAAAVAAYLSGGQP | + (‘+’ per each 10-fold resistance) | +++ (‘+’ per each 10-fold resistance) | +++ (‘+’ per each 10-fold resistance) | ++ (‘+’ per each 10-fold resistance) | +++ (‘+’ per each 10-fold resistance) | +++ (‘+’ per each 10-fold resistance) | ++++ (‘+’ per each 10-fold resistance)
2 | CyPPO19 R89A + V165C + F360I: variant of CyPPO19 PPO protein (SEQ ID NO: 1) (protein, Synthetic_PPO of Thermosynechococcus elongatus PKUAC-SCTE542 (comprising GenBank No. CP032152.1)) MSEVDVAIVGGGLSGLSLAWRLQQSAPQYSVVLLEASDRLGGNITTQTAEGFVWELGPNSFAPTPALLQLIAEVGLQSELIRGDRHLPAYIYWRGQLYPLQPTRPLALATSNLLSPWGKVRAALGALGFVPPYLGSGDESVNSFFRRHLGQEVAERLVAPFVSGCYAGDPQQLSAAAAFRRIAQLEKLGGGLIAGALHLRRQQAPKPKPPTSVQMRPGELGSFKEGLAALPRAIAQQLKAPIHLQTPVQEITPDPKGGYLLRSGEQTWRARSVVLATPAYQTAELVAPFQPAIARVLATIPYPTVACVVLAYPAGLGRSVRPGFGVLIPRSQGIRTLGTIWSSCLFPQRTPAGWQVFTSIIGGATDPDLASLSEEAIVQQVQQDLNRLLDLPAAKARLLGMKVWRRAIPQYMVGYPEQWQQVTHALSQTPGLFLCSNYAEGVALGDRVEHGNRTAAAVAAYLSGGQP | + (‘+’ per each 10-fold resistance) | ++++ (‘+’ per each 10-fold resistance) | ++ (‘+’ per each 10-fold resistance) | ++ (‘+’ per each 10-fold resistance) | ++++ (‘+’ per each 10-fold resistance) | +++ (‘+’ per each 10-fold resistance) | ++++ (‘+’ per each 10-fold resistance)
3 | CyPPO19 I408R + F360M: variant of CyPPO19 PPO protein (SEQ ID NO: 1) (protein, Synthetic_PPO of Thermosynechococcus elongatus PKUAC-SCTE542 (comprising GenBank No. CP032152.1)) MSEVDVAIVGGGLSGLSLAWRLQQSAPQYSVVLLEASDRLGGNITTQTAEGFVWELGPNSFAPTPALLQLIAEVGLQSELIRGDRHLPRYIYWRGQLYPLQPTRPLALATSNLLSPWGKVRAALGALGFVPPYLGSGDESVNSFFRRHLGQEVAERLVAPFVSGVYAGDPQQLSAAAAFRRIAQLEKLGGGLIAGALHLRRQQAPKPKPPTSVQMRPGELGSFKEGLAALPRAIAQQLKAPIHLQTPVQEITPDPKGGYLLRSGEQTWRARSVVLATPAYQTAELVAPFQPAIARVLATIPYPTVACVVLAYPAGLGRSVRPGFGVLIPRSQGIRTLGTIWSSCLFPQRTPAGWQVFTSMIGGATDPDLASLSEEAIVQQVQQDLNRLLDLPAAKARLLGMKVWRRARPQYMVGYPEQWQQVTHALSQTPGLFLCSNYAEGVALGDRVEHGNRTAAAVAAYLSGGQP | + (‘+’ per each 10-fold resistance) | ++ (‘+’ per each 10-fold resistance) | + (‘+’ per each 10-fold resistance) | + (‘+’ per each 10-fold resistance) | ++ (‘+’ per each 10-fold resistance) | + (‘+’ per each 10-fold resistance) | +++ (‘+’ per each 10-fold resistance)
4 | CyPPO19 I408W + F360T: variant of CyPPO19 PPO protein (SEQ ID NO: 1) (protein, Synthetic_PPO of Thermosynechococcus elongatus PKUAC-SCTE542 (comprising GenBank No. CP032152.1)) MSEVDVAIVGGGLSGLSLAWRLQQSAPQYSVVLLEASDRLGGNITTQTAEGFVWELGPNSFAPTPALLQLIAEVGLQSELIRGDRHLPRYIYWRGQLYPLQPTRPLALATSNLLSPWGKVRAALGALGFVPPYLGSGDESVNSFFRRHLGQEVAERLVAPFVSGVYAGDPQQLSAAAAFRRIAQLEKLGGGLIAGALHLRRQQAPKPKPPTSVQMRPGELGSFKEGLAALPRAIAQQLKAPIHLQTPVQEITPDPKGGYLLRSGEQTWRARSVVLATPAYQTAELVAPFQPAIARVLATIPYPTVACVVLAYPAGLGRSVRPGFGVLIPRSQGIRTLGTIWSSCLFPQRTPAGWQVFTSTIGGATDPDLASLSEEAIVQQVQQDLNRLLDLPAAKARLLGMKVWRRAWPQYMVGYPEQWQQVTHALSQTPGLFLCSNYAEGVALGDRVEHGNRTAAAVAAYLSGGQP | + (‘+’ per each 10-fold resistance) | + (‘+’ per each 10-fold resistance) | + (‘+’ per each 10-fold resistance) | + (‘+’ per each 10-fold resistance) | ++ (‘+’ per each 10-fold resistance) | + (‘+’ per each 10-fold resistance) | ++ (‘+’ per each 10-fold resistance)
5 | CyPPO19 I408W + F360V: variant of CyPPO19 PPO protein (SEQ ID NO: 1) (protein, Synthetic_PPO of Thermosynechococcus elongatus PKUAC-SCTE542 (comprising GenBank No. CP032152.1)) MSEVDVAIVGGGLSGLSLAWRLQQSAPQYSVVLLEASDRLGGNITTQTAEGFVWELGPNSFAPTPALLQLIAEVGLQSELIRGDRHLPRYIYWRGQLYPLQPTRPLALATSNLLSPWGKVRAALGALGFVPPYLGSGDESVNSFFRRHLGQEVAERLVAPFVSGVYAGDPQQLSAAAAFRRIAQLEKLGGGLIAGALHLRRQQAPKPKPPTSVQMRPGELGSFKEGLAALPRAIAQQLKAPIHLQTPVQEITPDPKGGYLLRSGEQTWRARSVVLATPAYQTAELVAPFQPAIARVLATIPYPTVACVVLAYPAGLGRSVRPGFGVLIPRSQGIRTLGTIWSSCLFPQRTPAGWQVFTSVIGGATDPDLASLSEEAIVQQVQQDLNRLLDLPAAKARLLGMKVWRRAWPQYMVGYPEQWQQVTHALSQTPGLFLCSNYAEGVALGDRVEHGNRTAAAVAAYLSGGQP | + (‘+’ per each 10-fold resistance) | ++++ (‘+’ per each 10-fold resistance) | +++ (‘+’ per each 10-fold resistance) | ++ (‘+’ per each 10-fold resistance) | +++ (‘+’ per each 10-fold resistance) | +++ (‘+’ per each 10-fold resistance) | ++++ (‘+’ per each 10-fold resistance)
6 | CyPPO19 I408R + F360L: variant of CyPPO19 PPO protein (SEQ ID NO: 1) (protein, Synthetic_PPO of Thermosynechococcus elongatus PKUAC-SCTE542 (comprising GenBank No. CP032152.1)) MSEVDVAIVGGGLSGLSLAWRLQQSAPQYSVVLLEASDRLGGNITTQTAEGFVWELGPNSFAPTPALLQLIAEVGLQSELIRGDRHLPRYIYWRGQLYPLQPTRPLALATSNLLSPWGKVRAALGALGFVPPYLGSGDESVNSFFRRHLGQEVAERLVAPFVSGVYAGDPQQLSAAAAFRRIAQLEKLGGGLIAGALHLRRQQAPKPKPPTSVQMRPGELGSFKEGLAALPRAIAQQLKAPIHLQTPVQEITPDPKGGYLLRSGEQTWRARSVVLATPAYQTAELVAPFQPAIARVLATIPYPTVACVVLAYPAGLGRSVRPGFGVLIPRSQGIRTLGTIWSSCLFPQRTPAGWQVFTSLIGGATDPDLASLSEEAIVQQVQQDLNRLLDLPAAKARLLGMKVWRRARPQYMVGYPEQWQQVTHALSQTPGLFLCSNYAEGVALGDRVEHGNRTAAAVAAYLSGGQP | + (‘+’ per each 10-fold resistance) | + (‘+’ per each 10-fold resistance) | + (‘+’ per each 10-fold resistance) | + (‘+’ per each 10-fold resistance) | + (‘+’ per each 10-fold resistance) | + (‘+’ per each 10-fold resistance) | ++ (‘+’ per each 10-fold resistance)
